Test: soluble on expression in E. coli; label from the status in PepcDB or PDB records

| Sequence | soluble on expression in E. coli |
| --- | --- |
| MNGSRSTFLYLLAAAGLALTPAAQADRGNDVVARLNQLYNDTRQDCGGPSKPAFLCSGVLFRATWPSTDYMFYSISPKSQKSGGVSASYLRKDAKYRKLAYGLKSGFIFDTIFGNPKDHQDYAVLCSFPIDAATDDRAQQGCTDSRRTPNSVEKSCQDINVSTAEQWAANYRQNRGDHSRQCSFDVRDERNTAAGPAFYQSIRAMAQIADESFTTQNELRLAKWEENPPKSPSILAAFYTEDAGLEGARLNQIQWYQSVQAFLPIINMRLPQTRQQDAQFAYDGRKQAIYPTSEKNACERYVESATWVERDDPGFRKKIMTLEVVPTDCGRKIQDNQTNNFFNELVVDHYLDSEWKDNPDNRDSNIGSMRRQLVCHFNVARNKPEWNLEPSRPYTSNEDSIAKGCNNT | not soluble |
| MNIKYSGIENRFETAILKKNGVRSGFVSFAPNLAAVKLNDYAKVRKRITKTKQKADIVIVMFHGGAEGKQAEHLPFDTEIFYGENRGNVVEFARLAVDSGADVVFGQGPHVTRAVELYRDRFISYSGGNFATYGAINTSGISGIAPIFKIITDKQGRFVSGNIIPITQVGDKIPKIDPEKTVIGRIIYLNRSDFPKGNGLDVSPDGSITRR | not soluble |
| MNIQALINDKVSQALEAAGAPAGSPAAVRQSAKPQFGDYQANGVMGVAKKLGTNPREFAQKVLDVLDLDGIASKTEIAGPGFINIFLSEEFLAKQADAALADSR | not soluble |
| MNISVFDLFSIGIGPSSSHTVGPMLAANAFLQLLEQKNLFDKTQRVKVELYGSLALTGKGHGTDKAILNGLENKAPETVDPASMIPRMHEILDSNLLNLAGKKEIPFHEATDFLFLQKELLPKHSNGMRFSAFDGNANLLIEQVYYSIGGGFITTEEDFDK | not soluble |
| MNITPFPTLSPATIDAINVIGQWLAQDDFSGEVPYQADCVILAGNAVMPTIDAACKIARDQQIPLLISGGIGHSTTFLYSAIAQHPHYNTIRTTGRAEATILADIAHQFWHIPHEKIWIEDQSTNCGENARFSIALLNQAVERVHTAIVVQDPTMQRRTMATFRRMTGDNPDAPRWLSYPGFVPQLGNNADSVIFINQLQGLWPVERYLSLLTGELPRLRDDSDGYGPRGRDFIVHVDFPAEVIHAWQTLKHDAVLIEAMESRSLRLEHHHHHH | not soluble |
| MNKAIFLDRDGTLNIDYGYVHEIDNFKFIDGVIDALRELKKMGYMLVLVTNQSGIARGYFSEDQFLQLTEWMDWSLAEQDVDLDGIYYCPHHSEGKGEYKEDCDCRKPKSGMLLQAIKELKIDPTQSIMVGDKVEDLKAGIGAKVKMNVLVRTGKPVTGEGEGIADYVLDSIVDLPRILKRLKKLEHHHHHH | not soluble |
| MNKFIAAEAAECIGCHACEIACAVAHNQENWPLSHSDFRPRIHVVGKGQAANPVACHHCNNAPCVTACPVNALTFQSDSVQLDEQKCIGCKRCAIACPFGVVEMVDTIAQKCDLCNQRSSGTQACIEVCPTQALRLMDDKGLQQIKVARQRKTAAGKASSDAQPSRSAALLPVNSRKGADKISASERKTHFGEIYCGLDPQQATYESDRCVYCAEKANCNWHCPLHNAIPDYIRLVQEGKIIEAAELCHQTSSLPEICGRVCPQDRLCEGACTLKDHSGAVSIGNLERYITDTALAMGWRPDVSKVVPRSEKVAVIGAGPAGLGCADILARAGVQVDVFDRHPEIGGMLTFGIPPFKLDKTVLSQRREIFTAMGIDFHLNCEIGRDITFSDLTSEYDAVFIGVGTYGMMRADLPHEDAPGVIQALPFLTAHTRQLMGLPESEEYPLTDVEGKRVVVLGGGDTTMDCLRTSIRLNAASVTCAYRRDEVSMPGSRKEVVNAREEGVEFQFNVQPQYIACDEDGRLTAVGLIRTAMGEPGPDGRRRPRPVAGSEFELPADVLIMAFGFQAHAMPWLQGSGIKLDKWGLIQTGDVGYLPTQTHLKKVFAGGDAVHGADLVVTAMAAGRQAARDMLTLFDTKAS | not soluble |
| MNKFNEEYRKMEEDAQRRHQELNRQSLENAAEMKDSRRKILNKEFEGAILIKQVEHETKQVEKKRENLEKGHKKEMRNMSADFRKKKNEIEMEQLKLAIGNRVENHNQRKVEEQLRNEQERFLKKLLKYHTTTGANRDLFGEFQKVLKPFNEMIGELQDIKLRCITDGDADNGYIEYEVDYVGQLRRSVYTEIDEFREYIADEKNISKEIGIACAIYVKKLERIADCKELNLLCDQLQAAIEGKNGEIIKTCEIFIDKFTQKFESISNGSTSDFHRLRLKAPERDIPSSSTLTIEN | not soluble |
| MNKKDFLDFLNQNILILDGATGTELQKRGMPGGVCPEMWVIENPDVIMDIQKDYINAGSNAVYTCTFGGNRIKLSEFGLGDKVVEINKKLAQLSRKAAGEKGLVAGDLAPTGRFVRPFGDMPFEEAVDVYKEQVKGLLEGGVDFFVIETMMDIQEARAALLAVKESCDLPVCVSMTFDESGRTLTGTDSVSALIILQSLGADVVGCNCSTGPQDMIKIIREMKPYAKVPLLAKPNAGLPKLIDGKTRFDMEPEEFGSYIKEFVEAGVNLLGGCCGTSPVYIEQIRKNIEGLKPIPPQPKEICAVASARKTVFVDANEPVVVVGERINPTGKKKLQEELRQGMTSLVRQFAVEQVEKGADILDVNVGMPGIDEKETMVKVVELLSSITDAPLCLDSSSPEVLEAALRIYPGRALINSISAEKVKIEKLLPIAAKYGAAFILLPLGDAGVPKSAGERCKIVEEVFNEASKWGYTKKDVIVDGLVMTVSADQEAAVETLKVIEWCTQSFGCGTIVGLSNVSFGMPERAWINSAFLAMAIGYGLTMAILNPSSDTLMSIKMASDVLKVKDRNSKKYIEHFAALKSDKPQVVEKKDTASPVEKVYDAVVKGDRENIRKYIDDALKDGTEPSIIVDKYLIPAITHVGDLYDRKEYFLPQLIQSAETMKEAFGILEPLLKKEPVDEKGNKVKVILATVKGDIHDIGKNIVGLMLRNYGFEVYDLGKDVSAEEIVKKAKETNAPIIGLSALMTTTMLEMREVVSLVRQEGLNAKIMIGGAVVNADYAKEIGADGYSEDAYGAVKLASKLAGI | soluble |
| MNKLRRQLSMNSLLIDTSNQPLSVALMQNDEVLAEITTDSKQNHSVQLMPAISQLFEQSKIAKQQLDAIIVAEGPGSYTGLRIGVTVAKTLAYALDVKLYGVSSLKALAATIDHTDKLLVPVFDARRQAVYTGIFQWQNGQLVTILEDQYMSIEALRAFLEDLNQPFIYIGKDTIKLQDELQGEVIAQLPNASVMYQLIDKPTDVHTFTPKYHKLAEAERNWINSQKNN | not soluble |
| MNKNKPFIVVIVGPTASGKTELSIELAKRINGEIISGDSMQVYKHMNIGTAKVTPEEMDGIPHHLIDILNPDDTFSAYEFKRLAEDLITDITNRGKVPIIAGGTGLYIQSLIYNYELEDETVTPAQLSIVKQKLSALEHLDNQQLHDYLAQFDAVSAENIHPNNRQRVLRAIEYYLKTKKLLSNRKKVQQFTENYDTLLLGIEMSRKTLYSRINKRVDIMLDHGLFREVQQLVEQGYESCQSMQAIGYKELIPVINGQMIYEDAVNDLKQHSRQYAKRQMTWFKNKMSVHWLDKENMSLQMMLDEITTQIKLEHHHHHH | soluble |
| MNKRIVICADGTWNRPEKDLKVDFPTNVLRLARAISPIAADGKPQQVFYDWGVGSYYDEVIGGATGRGLHKNIMDGYRYIVQNYSPGDEIYLFGFSRGAYTVRCLCGLINNCGILKRPEARLIQQAFDHYKKSSAPFAPSGDKSVEFRHEHCHESREIKFVGVWDTVGAMGIPISFLGLFEDKDEFYDTKIGRNVRVARHALAIDEHRSDFEPTIWQLRDNMDMQQVWFAGAHSNVGGSYLPDKDGSLLSDNALAWMIAEAERFNLSLEPHLTAGLRPNPLATLHDSRRSFYRIKQPYLRPLDPDVAPVLLHRSVKVRWEQDPKYRPKNLQAYLEKFGWPQELIDKLAAALEHHHHHH | soluble |
| MNKTELIKNVAQNAEISQKEATVVVQTVVESITNTLAAGEKVQLIGFGTFEVRERAARTGRNPQTGEEMQIAASKVPAFKAGKELKEAVK | soluble |
| MNKTYDFKSITENFNLEGELKTSDSHVCGHINDTFIINCEGENGEEIKYVLQRVNSDIFKNPEQLMENIENVTSHIKNKIIEENGDPLRETLNIVKTKEGKNFYKCKEGNYWRIFNFIHDASTYQIVEKPEHLYTAGKALGKFQKQLSDFNVDMLYDTIPDFHNTEKRFEAFMEAVREDKKGRAKDVKEEIDFVINRAEDTKVLVNMIKENKLPLRVTHNDTKFNNIMIDDETGEGIAVIDLDTVMPGLSLYDFGDSIRSGATTALEDEVDLSKVNFDLNLYEHFTKGFLESAGDAFTKEEIEYLPFAAKLMTFECGMRFLMDYLNGDVYFKIHRENHNLDRARNQFKLVSDMEKEMDNMKKIVYSYILEHHHHHH | not soluble |
| MNKVIKMLVVTLAFLLVLAGCSGNSNKQSSDNKDKETTSIKHAMGTTEIKGKPKRVVTLYQGATDVAVSLGVKPVGAVESWTQKPKFEYIKNDLKDTKIVGQEPAPNLEEISKLKPDLIVASKVRNEKVYDQLSKIAPTVSTDTVFKFKDTTKLMGKALGKEKEAEDLLKKYDDKVAAFQKDAKAKYKDAWPLKASVVNFRADHTRIYAGGYAGEILNDLGFKRNKDLQKQVDNGKDIIQLTSKESIPLMNADHIFVVKSDPNAKDAALVKKTESEWTSSKEWKNLDAVKNNQVSDDLDEITWNLAGGYKSSLKLIDDLYEKLNIEKQSK | not soluble |
| MNKVLINDTTLRDGEQAAGVVFTLEEKVAIAKFLDTIGVPELEVGIPAMGEEEMRAICAISNLGLKANLLAWNRAVISDIKASVACGMERVHIAIPVSGIQIAAKFHGQWRVSLQRLKDCISFAVDQGLWVAVGGEDSSRADENFLLDVALYAQEWGASRFRFCDTVGVLDPFTTYGKVKLLVSALTIPVEVHTHNDFGMATANALAGIKAGASSVNTTVIGLGERAGNAALEEVVMAIKRIYGVDMGIDTPRLLELSQLVAAASGANVPPWKAIVGENTFAHESGIHAHGVLQNPDTYEPFAPEEVGWERRLVVGKHSGRHSVSNLLEQHGLEHHHHHH | soluble |
| MNKYQAVIIGFGKAGKTLAVTLAKAGWRVALIEQSNAMYGGTCINIGCIPTKTLVHDAQQHTDFVRAIQRKNEVVNFLRNKNFHNLADMPNIDVIDGQAEFINNHSLRVHRPEGNLEIHGEKIFINTGAQTVVPPIPGITTTPGVYDSTGLLNLKELPGHLGILGGGYIGVEFASMFANFGSKVTILEAASLFLPREDRDIADNIATILRDQGVDIILNAHVERISHHENQVQVHSEHAQLAVDALLIASGRQPATASLHPENAGIAVNERGAIVVDKRLHTTADNIWAMGDVTGGLQFTYISLDDYRIVRDELLGEGKRSTDDRKNVPYSVFMTPPLSRVGMTEEQARESGADIQVVTLPVAAIPRARVMNDTRGVLKAIVDNKTQRMLGASLLCVDSHEMINIVKMVMDAGLPYSILRDQIFTHPSMSESLNDLFSLVK | soluble |
| MNLDYLKETYHLTKTESQILYYLDQQSTNAADLSIREVAKHCFSSPSSIIRLAKKLNLSGYNELIYKLKEAHFSQPIPFETAPSFETTNEFCRLLAKHKSHLFVILGHDFSRHLAAYISEVFNFHGIPSITTAYTHSINSQNNQNFLFIILSHSGEEKYLKETALLAKEKKHPIISFVGAKNSTLGRLADLVFSTDSYSPFSTSVAQPQMFFGQTLITFEALICAYLNHEDSIPISHKNK | not soluble |
| MNLHICEVTAKNWRSVVALDVAKDQQQFIESNAFSLAESLYEGNGTSVGLYDSETLVGYAMYGWYSVKHKSVWLDRFMIDQQYQGKGYAKRFLRLLIQFLQEKFECKIIYLSLHPDNKLAMGLYESFGFRLNGDIDDEGPVVGVVMELLIDENTSL | not soluble |
| MNLKREQEFVSQYHFDARNFEWENENGAPETKVDVNFQLLQHDQENQVTSLIVILSFMIVFDKFVISGTISQVNHIDGRIVNEPSELNQEEVETLARPCLNMLNRLTYEVTEIALDLPGINLEF | soluble |
| MNLNIETSRRIELIDITSEVKEEVRISGVREGVCIISTRHTTAGIIVNENENGLREDILNMLERLVPQGAGYRHDRIDNNADSHLKAILLGSSEALPIVKGELELGTWQSIFFAEMDGPRNRAVNLTILKTELEHHHHHH | soluble |
